# Target: CD19 on CD19+ cells (Nalm6-GL, Raji, donor B cells) (UniProt P15391)
# Assay: cell-based or functional assay
# UniProt P15391, sequence (P15391 20-556 limits assumed): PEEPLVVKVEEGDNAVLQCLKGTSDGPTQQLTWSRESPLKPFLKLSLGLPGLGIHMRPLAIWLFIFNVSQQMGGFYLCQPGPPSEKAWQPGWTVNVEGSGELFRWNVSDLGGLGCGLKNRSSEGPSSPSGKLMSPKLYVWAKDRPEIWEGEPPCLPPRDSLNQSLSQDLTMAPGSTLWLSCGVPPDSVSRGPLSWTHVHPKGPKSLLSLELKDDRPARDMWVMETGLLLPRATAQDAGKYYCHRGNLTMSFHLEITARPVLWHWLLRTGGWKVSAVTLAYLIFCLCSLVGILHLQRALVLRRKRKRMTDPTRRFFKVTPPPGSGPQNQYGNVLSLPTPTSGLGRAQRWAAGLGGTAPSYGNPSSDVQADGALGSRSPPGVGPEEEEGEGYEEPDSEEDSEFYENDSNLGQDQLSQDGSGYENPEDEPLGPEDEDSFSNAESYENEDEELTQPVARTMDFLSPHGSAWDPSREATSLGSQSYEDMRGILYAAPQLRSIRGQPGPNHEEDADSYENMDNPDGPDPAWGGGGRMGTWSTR
substance,measurement,value
"CD19.28.ζ-CAR (CD19-specific chimeric antigen receptor with FMC63 scFv, CD28 hinge, transmembrane and intracellular sequences and CD3ζ intracellular domain) (from UniProt P10747 114-220; P20963 52-164)",CD19+ cell population (B cells) remaining 24 hours after gene targeting,2.53%
